Here are results for six molecules from paper PMC8099430, “CM1-driven assembly and activation of yeast γ-tubulin small complex underlies microtubule nucleation” (eLife, 2021).

The labels stand for the following.
B4: Spc97p (natural protein, S. cerevisiae)
chain: MEIKEVDDRAELLRYTNNIPLLGKLVNHQPLWSTNPKLKSFSLEKISAPDQRRVQEALVVKDLLNVLIGLEGTYIRYFNDYEPSDPETPIEFKIAKKMDPSFKTFSRRIVRYGKQYMILTRAYEKWSDTSFGMVLQRFAYEIRRFLEDVYLKTLVERLERDFNKVPNFSIRELEQIINETEVNKQMELLYNIYEEIFREIEERRTNQSSQEDFNNFMDSMKNESSLHLRLMVAFDTTVYPVPKGGAILKIFQQKILENLGDRSSVMFLKKLLNNISQDYCTMLYEWLTQGILNDPYQEFMTYDDLEGKTDNIFDTRDRAWDTQYFIRKDVLLRDCDSEEDKNLLFKMLRTGILLKVVRASLQIPTIPSNSSDITIQEINDFADLMEGSNLELYVDKCYSRANEIFLKLFFQGYDLINVLKHLQQIFLGYQSGHNVLKFLTKNMGELTKHYRNDNNANYDKLLQNFELERQSENPNNLMRQLLMIQFDTETLPQVLSHYLQIYPEVPENNSANDDSDPLMHANNFKNMNAILFDELSKERTGAYHGSNLELYTPKSAIYHLKFDINIPYPLNIIISRTCMIKYQIILRYQLVLQYHSRLLDETWMDLNKTPSWKYRGYSHTVKRRIVRATRVLHAKMNHFIKTIMEYFNQNVIDKEVYSLEKCYRNPTLAVAIQNELEGGLTNIMTNRCLSDLIPLQLQIFDIVYKFCKFIKSMRAKLCQLDPVLYEKHKSGMMKTLNEGYRTNNGGQEDVGYQEDAALELIQKLIEYISNASSIFRKCLINFTQELSTEKFDFYDSSSVDAAGIERVLYSIVPPRSASASSQR
notes: Spc97p, S. cerevisiae homologue of GCP2; the 712 a.a. built in the model are said to be 87% of the protein; also called GCP2 homologue; source: pFastBac-Spc97p construct; purified as part of γTuSC, prepared essentially as described (Vinh et al., 2002; Lyon et al., 2016)

Series [1] addresses γTuSC (Saccharomyces cerevisiae) (UniProt P53378). Particulars: cited from earlier work.
The target in series [2] is B4. The series can be described thus: cryo-EM structure; γTuRC^WT helical filaments of γTuSC with Spc110p^1-220 (open and closed classes); 40 mM HEPES pH 7.5, 2 mM MgCl2, 1 mM EGTA, 1 mM GDP, 100 mM KCl, 1 mM DTT, 2.5% glycerol. Particulars: both partners purified.
Series [3] has as its target T1, Spc98p (S. cerevisiae, UniProt P53540 1-846).
T1 construct: Spc98p, S. cerevisiae homologue of GCP3; the 674 a.a. built in the model are said to be 80% of the protein; also called GCP3 homologue; source: pFastBac-Spc98p construct; purified as part of γTuSC, prepared essentially as described (Vinh et al., 2002; Lyon et al., 2016)
T1 sequence: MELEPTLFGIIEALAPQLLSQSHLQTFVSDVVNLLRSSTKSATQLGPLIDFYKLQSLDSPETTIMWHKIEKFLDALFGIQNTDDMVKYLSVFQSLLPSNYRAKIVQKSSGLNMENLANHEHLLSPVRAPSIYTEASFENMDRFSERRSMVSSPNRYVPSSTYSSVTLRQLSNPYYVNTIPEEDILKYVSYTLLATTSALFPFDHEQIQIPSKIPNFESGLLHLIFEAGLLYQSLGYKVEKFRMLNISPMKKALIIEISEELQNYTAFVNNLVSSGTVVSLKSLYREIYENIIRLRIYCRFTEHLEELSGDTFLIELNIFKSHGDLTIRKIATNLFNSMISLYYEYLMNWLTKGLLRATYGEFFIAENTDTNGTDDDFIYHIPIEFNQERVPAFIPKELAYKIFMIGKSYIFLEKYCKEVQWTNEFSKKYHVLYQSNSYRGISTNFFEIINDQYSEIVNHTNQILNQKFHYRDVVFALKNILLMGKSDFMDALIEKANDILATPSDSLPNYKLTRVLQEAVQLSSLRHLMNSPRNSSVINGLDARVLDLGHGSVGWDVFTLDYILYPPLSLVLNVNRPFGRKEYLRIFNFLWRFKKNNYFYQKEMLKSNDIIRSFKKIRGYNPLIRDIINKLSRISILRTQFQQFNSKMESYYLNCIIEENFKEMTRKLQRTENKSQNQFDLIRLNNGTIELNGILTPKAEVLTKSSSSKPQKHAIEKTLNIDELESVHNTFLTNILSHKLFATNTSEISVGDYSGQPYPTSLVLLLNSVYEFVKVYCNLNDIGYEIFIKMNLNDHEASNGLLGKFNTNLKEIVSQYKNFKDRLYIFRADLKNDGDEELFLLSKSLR
Described as above. Particulars: both partners purified.

The target of series [4] is B4. The series can be described thus: cryo-EM structure; γTuRC^SS helical filaments (disulfide-trapped closed state) of γTuSC^SS with Spc110p^1-220; 40 mM HEPES pH 7.5, 2 mM MgCl2, 1 mM EGTA, 0.5 mM GTP, 100 mM KCl, 1 mM oxidized glutathione, 2.5% glycerol. Particulars: both partners purified.
Series [5] addresses T1, Spc98p. The series is described as above. Particulars: both partners purified.
In series [6] the target is B4. The series can be described thus: cross-linking; XL-MS; DSS (0.44 mM, 3 min, RT) or EDC (5.4 mM plus 2.7 mM Sulfo-NHS, 30 min, RT); 0.4 µM γTuSC and 0.8 µM Spc110; 40 mM HEPES pH 7.0, 150 mM KCl. Particulars: both partners purified.
Series [7] concerns the molecule itself. The series can be described thus: cryo-EM structure; γTuRC^WT helical filaments of γTuSC with Spc110p^1-220 (open and closed classes); 40 mM HEPES pH 7.5, 2 mM MgCl2, 1 mM EGTA, 1 mM GDP, 100 mM KCl, 1 mM DTT, 2.5% glycerol.

Consider γTuSC (from UniProt P53378), for which the Kd in series [1] is 2000 nM.

B1: γ-tubulin (Tub4p) (natural protein, S. cerevisiae)
chain: MGGEIITLQAGQCGNHVGKFLWSQLAKEHAIGTDGLSQLPDSSTERDDDTKPFFRENSRNKFTPRAIMMDSEPSVIADVENTFRGFFDPRNTWVASDGASAGNSWANGYDIGTRNQDDILNKIDKEIDSTDNFEGFQLLHSVAGGTGSGLGSNLLEALCDRYPKKILTTYSVFPARSSEVVVQSYNTILALRRLIEDSDATVVFDNASLLNISGKVFRNPNIDLQHTNQLISTIISSVTNSIRFPSYMYSSMSSIYSTLIPSPELHFLSPSFTPFTSDYIHDDIAHKGHSSYDVMLDLLDPSNSLVSTAMNNPTYFNVYNTIIGNVEPRQISRAMTKLQQRIKFPSWSSSAMHVNIGRRSPYLPLQPNENEVSGMMLSNMSTVVNVFENACNTFDKVFAKGAFLNNYNVGDLFQSMQNVQDEFAESREVVQSLMEDYVAAEQDSYLDDVLVDDENMVGELEEDLDADGDHKLV
notes: Tub4p, S. cerevisiae γ-tubulin; the 453 a.a. built in the model are said to be 96% of the protein; source: pFastBac-Tub4p construct; purified as part of γTuSC, prepared essentially as described (Vinh et al., 2002; Lyon et al., 2016)
As to B1, the binding result in series [2] and in series [3] was “binds” throughout.

B2: Tub4p S58C/G288C (natural protein, S. cerevisiae)
chain: MGGEIITLQAGQCGNHVGKFLWSQLAKEHAIGTDGLSQLPDSSTERDDDTKPFFRENCRNKFTPRAIMMDSEPSVIADVENTFRGFFDPRNTWVASDGASAGNSWANGYDIGTRNQDDILNKIDKEIDSTDNFEGFQLLHSVAGGTGSGLGSNLLEALCDRYPKKILTTYSVFPARSSEVVVQSYNTILALRRLIEDSDATVVFDNASLLNISGKVFRNPNIDLQHTNQLISTIISSVTNSIRFPSYMYSSMSSIYSTLIPSPELHFLSPSFTPFTSDYIHDDIAHKCHSSYDVMLDLLDPSNSLVSTAMNNPTYFNVYNTIIGNVEPRQISRAMTKLQQRIKFPSWSSSAMHVNIGRRSPYLPLQPNENEVSGMMLSNMSTVVNVFENACNTFDKVFAKGAFLNNYNVGDLFQSMQNVQDEFAESREVVQSLMEDYVAAEQDSYLDDVLVDDENMVGELEEDLDADGDHKLV
modifications: engineered cysteines oxidised to disulfides (overnight dialysis into 1 mM oxidized glutathione)
notes: Tub4p, S. cerevisiae γ-tubulin, with S58C and G288C; also called γ-tubulin engineered with disulfides; γ-tubulin of γTuSC^SS / γTuRC^SS; source: pFastBac-Tub4p^S58C/G288C construct (Kollman et al., 2015); purified in filaments prepared essentially as described (Kollman et al., 2010; Kollman et al., 2015)
For the molecule B2, the binding result in series [4] and in series [5] was “binds” throughout.

B3: Spc110p^1-401-GST (domain or fragment, S. cerevisiae, UniProt P32380 1-401, looked up)
chain: MDEASHLPNGSLKNMEFTPVGFIKSKRNTTQTQVVSPTKVPNANNGDENEGPVKKRQRRSIDDTIDSTRLFSEASQFDDSFPEIKANIPPSPRSGNVDKSRKRNLIDDLKKDVPMSQPLKEQEVREHQMKKERFDRALESKLLGKRHITYANSDISNKELYINEIKSLKHEIKELRKEKNDTLNNYDTLEEETDDLKNRLQALEKELDAKNKIVNSRKVDDHSGCIEEREQMERKLAELERKLKTVKDQVLELENNSDVQSLKLRSKEDELKNLMNELNELKSNAEEKDTQLEFKKNELRKRTNELNELKIKSDEMDLQLKQKQNESKRLKDELNELETKFSENGSQSSAKENELKMLKNKIAELEEEISTKNSQLIAKEGKLASLMAQLTQLESKLNQRD
notes: Spc110p, S. cerevisiae, residues 1-401; also called Spc110^1-401-GST; Spc110^1-401; not shown: GST, C-terminal, kept
For B3, the binding result in series [6] is reported as “binds”.
B4: the binding result in series [3] was “binds”.

B5: Spc110p^1-220 (domain or fragment, S. cerevisiae, UniProt P32380 1-220, looked up)
chain: MDEASHLPNGSLKNMEFTPVGFIKSKRNTTQTQVVSPTKVPNANNGDENEGPVKKRQRRSIDDTIDSTRLFSEASQFDDSFPEIKANIPPSPRSGNVDKSRKRNLIDDLKKDVPMSQPLKEQEVREHQMKKERFDRALESKLLGKRHITYANSDISNKELYINEIKSLKHEIKELRKEKNDTLNNYDTLEEETDDLKNRLQALEKELDAKNKIVNSRKVD
notes: also called Spc110^1-220; N-terminal domain of Spc110p; source: pFastBac-GST-Spc110p^1-220 construct; purified in filaments with γTuSC, prepared essentially as described (Kollman et al., 2010; Kollman et al., 2015)
Take B5: the binding result in series [4], in series [5] and in series [7] was “binds” each time.
